The target of test [1] is T1, human PAR-2 (human, UniProt P55085 26-397).
T1 sequence: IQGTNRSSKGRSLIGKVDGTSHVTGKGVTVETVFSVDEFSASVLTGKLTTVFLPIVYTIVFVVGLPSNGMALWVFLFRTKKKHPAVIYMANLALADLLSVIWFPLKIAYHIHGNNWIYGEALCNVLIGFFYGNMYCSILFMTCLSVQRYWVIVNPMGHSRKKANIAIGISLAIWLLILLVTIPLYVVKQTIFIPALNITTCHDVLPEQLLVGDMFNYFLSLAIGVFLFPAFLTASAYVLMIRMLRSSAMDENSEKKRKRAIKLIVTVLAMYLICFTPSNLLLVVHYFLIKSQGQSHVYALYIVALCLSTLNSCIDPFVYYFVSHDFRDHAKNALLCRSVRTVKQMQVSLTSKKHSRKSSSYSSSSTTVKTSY
The test is described as follows: cell-based or functional assay.

In test [2] the target is T1, human PAR-2. The test is described as follows: cell-based or functional assay. The source holds these as a separate data set.
Test [3] has as its target T1, human PAR-2. Briefly: cell-based or functional assay. This is another data set of the same source.
Test [4] addresses T1, human PAR-2. The test is described as follows: cell-based or functional assay. The source holds these as a separate data set.
The target in test [5] is T2, human PAR-1 (human, UniProt P25116 22-425).
T2 construct: also called huPAR-1
T2 sequence: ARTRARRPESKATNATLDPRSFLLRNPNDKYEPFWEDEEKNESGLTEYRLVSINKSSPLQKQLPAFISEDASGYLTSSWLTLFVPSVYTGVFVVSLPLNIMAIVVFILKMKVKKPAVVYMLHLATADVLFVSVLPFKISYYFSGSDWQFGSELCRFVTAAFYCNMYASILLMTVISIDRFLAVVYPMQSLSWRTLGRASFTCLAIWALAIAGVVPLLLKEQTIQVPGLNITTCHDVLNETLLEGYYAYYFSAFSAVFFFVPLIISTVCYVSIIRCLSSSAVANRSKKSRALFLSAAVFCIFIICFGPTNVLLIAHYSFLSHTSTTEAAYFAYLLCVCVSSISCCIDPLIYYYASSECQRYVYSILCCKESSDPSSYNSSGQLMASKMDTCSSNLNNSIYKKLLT
The test is described as follows: flow cytometry, transfected Expi293F cells. The protocol:
Paired heavy and light chains encoded by these sequence pairs were expressed as a full length human IgG4 isotype antibodies and assessed for PAR-2 binding and selectivity by flow cytometry. […] Cells were used for flow cytometric analysis 36-48 hours post-transfection. Use of Nt-PAR-2 as a target allowed antibodies which bound the N-terminal residues of PAR-2 (which comprise the protease-cleavage sites on PAR-2) to be distinguished from antibodies which bound other extracellular sites on PAR-2, such as the PAR-2-activating ligand-binding site(s). Expi293F cells, transiently expressing one of each of the different target proteins were labelled with different intensities of a single fluorphor Encoder dye (Intellicyt) for 10 mins at either 1 in 250 dilution for high intensity and/or 1 in 1500 dilution for moderate intensity, enabling simultaneous analysis of multiple cell populations. After washing the cells were then mixed in an equal ratio with the unlabeled cell type and analyzed for antibody binding.
The cells were plated in 96 well plates at 2×10⁵ cells/well. Following a wash step using Phosphate buffered saline (PBS), the primary antibody (anti-PAR-2 antibody) was added at a concentration of 10 μg/mL in 50 μL of FACS buffer (0.5% w/v BSA in PBS) to each well and incubated for 10-15 mins. Following a wash step, secondary antibody (anti-human Fc-FITC) was added to the wells at 1:200 dilution in 50 μL for 10-15 mins. Following a washing step, the cells were re-suspended in fluorescence-activated cell sorting (FACS) buffer. The flow cytometry analysis was performed on an Intellicyt iQue screener. Gates were drawn around the different intensities of encoder dye-positive cells and these populations were analyzed separately from each other and the unlabeled cells for binding by the primary antibody.

Substitutions are numbered along the chain they refer to. Several values for one entry are separate records, joined by “and”; a condition that tells them apart may be missing. Equal values may be shown once.

B1: P24E976 (antibody, human IgG4 S228P, kappa, V domains shown)
VH: QVQLVQSGAEVKKPGSSVKVSCKASGFSLSSYAISWVRQAPGQGLEWMGVIWGNQNVYYAQKFQGRVTITADESTSTAYMELSSLRSEDTAVYYCARWKGYKDYPFDYWGQGTLVTVSS
VL: EIVLTQSPATLSLSPGERATLSCRASQNVYKWLDWYQQKPGQAPRLLIYNAYSRATGIPARFSGSGSGRDFTLTISSLEPEDFAVYYCQQHHSGWTFGGGTKVEIKR
For the molecule B1, the “PAR-2 β-arrestin cell based assay IC50, 2 µM SLIGKV” value in test [1] is 0.9 nM and 1.26 nM. In test [2], the “Calcium flux IC50” value is 15.9 nM and 15.3 nM and 7.1 nM and 5.9 nM; the “IL-6 release in A549 cells IC50” value amounted to 5.63 nM; the “IL-8 release in A549 cells IC50” value came out at 4.25 nM.

B2: P24E1099 (antibody, human IgG4 S228P, kappa, V domains shown)
VH: B1 VH
VL: B1 VL with Y52N
Turning to B2, in test [1], the “PAR-2 β-arrestin cell based assay IC50, 2 µM SLIGKV” value was found to be 1.37 nM. In addition, in test [2], the “Calcium flux IC50” value came to 12.3 nM, the “IL-6 release in A549 cells IC50” value worked out at 6.74 nM and the “IL-8 release in A549 cells IC50” value was 4.89 nM.

B3: 309-6e (antibody, human IgG4 S228P, kappa, V domains shown)
VH: EVQLVESGGGLVQPGGSLRLSCAASGFSLNSYGVIWVRQAPGKGLEWVSVIWGNGNTYYNDSVKGRFTISRDNSKNTLYLQMNSLRAEDTAVYYCARWRGYKDYPFDYWGQGTLVTVSS
VL: B1 VL with R24K, V29I, W32Y, A51T, Y52N, R54L, A55H, Q89L, H92N
For the molecule B3, in test [3], the “PAR-2 calcium flux cell assay IC50” value came out at 12.7 nM and the “PAR-2 β-arrestin cell assay IC50, 1 µM SLIGKV” value was found to be 5.6 nM.

B4: P24E1103 (antibody, human IgG4 S228P, kappa, V domains shown)
VH: B1 VH
VL: B1 VL with Y52N, S53N
Regarding B4, in test [1], the “PAR-2 β-arrestin cell based assay IC50, 2 µM SLIGKV” value is 1.54 nM. In addition, in test [2], the “Calcium flux IC50” value is 12.7 nM, the “IL-6 release in A549 cells IC50” value was found to be 7.18 nM and the “IL-8 release in A549 cells IC50” value came out at 5.17 nM.

B5: 309-11e (antibody, human IgG4 S228P, kappa, V domains shown)
VH: QVQLQESGPGLVKPSETLSLTCTVSGFSLNSYGVIWIRQPPGKGLEWIGVIWGNGNTYYNPSLKSRVTISVDTSKNQFSLKLSSVTAADTAVYYCARWRGYKDYPFDYWGQGTLVTVSS
VL: B1 VL with R24K, V29I, W32Y, A51T, Y52N, R54L, A55H, Q89L, H92N
Consider B5, for which, in test [3], the “PAR-2 calcium flux cell assay IC50” value stood at 22.8 nM and the “PAR-2 β-arrestin cell assay IC50, 1 µM SLIGKV” value is 6.1 nM.

B6: 309-12e (antibody, human IgG4 S228P, kappa, V domains shown)
VH: B5 VH with E6Q, S7W, P9A, V12L, T23A, S25Y
VL: B1 VL with R24K, V29I, W32Y, A51T, Y52N, R54L, A55H, Q89L, H92N
For B6, in test [3], the “PAR-2 calcium flux cell assay IC50” value was 8.3 nM and the “PAR-2 β-arrestin cell assay IC50, 1 µM SLIGKV” value was 2.3 nM.

B7: Ab114 (antibody, human IgG4, V domains shown)
VH: QVQLQQSGPELVKPGASVKISCKTSGFTFTSYYIHWVKQRPGQGLEWIGWIYPGSGNTYYNERFKGKATLTADTSSSTASMQLSSLTSEDSAVYYCANGPLFYGSSYWYFDVWGTGTTVTVSS
VL: DVQITQSPSYLAASPGETITINCRASKSISRYLAWYQEKPGKTNKLLIYSGSTLQSGVPSRFSGSGFGTDFTLTISSLEPEDFAMYYCQQHNKYPLTFGAGTKLELK
notes: also called Anti-PAR-2 antibody # 114
As to B7, the “IC50, PAR-2 β-arrestin cell assay” value in test [4] came to 36.7 nM. For the same molecule, the binding result in test [5] is “no binding (tested: 10 µg/mL)”.

B8: Ab84 (antibody, human IgG4, V domains shown)
VH: EVQLIESGGGLVQPKGSLKLSCAASGFTFNSYAMHWVRQAPGKGLEWVARIRSKNVHYATYYADSVKDRFTISRDDSQSMLYLQMNNLKTEDTAMYFCVREDYYGSSYDYWGQGTTLTVSS
VL: DIVMTQSHKFMSTSVGDRVSITCKASQDVGSAVAWHQQKPGQSPKLLIYWTSNRHTGVPDRFTGRRSGTDFTLTISNVQSEDLADYFCQQYSTYPFTFGSGTKLEIK
notes: also called Anti-PAR-2 antibody # 84
As to B8, the “IC50, PAR-2 β-arrestin cell assay” value in test [4] is 6 nM. In addition, the binding result in test [5] is “no binding (tested: 10 µg/mL)”.

B9: Ab87 (antibody, human IgG4, V domains shown)
VH: B8 VH with I5V, N30Y, K43R, S79N, F97Y
VL: B8 VL with G30R, T51A, R65S, R66G, T93S
notes: also called Anti-PAR-2 antibody # 87
Regarding B9, the “IC50, PAR-2 β-arrestin cell assay” value in test [4] was found to be 5.6 nM. Besides, the binding result in test [5] is on record as “no binding (tested: 10 µg/mL)”.

These data come from patent US20220056125A1 (CEPHALON, published 2022).
